Earlier results as cited in patent US5770693A, “Calpain-inhibiting peptide analogs of the kininogen heavy chain” (Temple University-Of The Commonwealth System of Higher …, priority 1995, dated 1998).

Molecular target: T1, papain (Carica papaya, UniProt P00784)
T1 sequence (P00784 134-345): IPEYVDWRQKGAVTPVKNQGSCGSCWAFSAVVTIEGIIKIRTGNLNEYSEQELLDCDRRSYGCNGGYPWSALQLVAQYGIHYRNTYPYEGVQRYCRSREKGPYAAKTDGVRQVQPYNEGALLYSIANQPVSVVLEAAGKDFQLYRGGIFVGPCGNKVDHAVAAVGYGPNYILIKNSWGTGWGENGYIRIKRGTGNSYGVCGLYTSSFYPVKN

Substance: Gln-Val-Val-Ala-Gly (QVVAG; printed: Gln-Val-Val-Ala-Gly) [pentapeptide contained in kininogen heavy chain domains D2 and D3]
- activity in inhibiting papain (in words): weak activity
